The target of this test is RTQKEASI peptide (mammalian). Description: ELISA, peptide adsorbed to wells (10 mg/ml). A general note: In an ELISA, binding on a coated surface is turned into a signal by an enzyme label.

Regarding Negative control (ELISA of Table 3), the OD is 0.141 OD.

The record behind these values is patent publication US20090232837A1.
